*1 amine or outer side, *2 acyl side, *3 side chain or, on linkers, in order; H or OH if unused. Where no end group is shown, it is not given here. Side-chain parts run from the residue outwards. [ ]: non-standard residue; d: D form. The star is where a group is joined. d(γGlu) = O=C(O)[C@@H](CCC(=O)[*:2])N[*:1]; C18 diacid = O=C(O)CCCCCCCCCCCCCCCCC(=O)*; C16 diacid = O=C(O)CCCCCCCCCCCCCCC(=O)*; γGlu = O=C(O)[C@H](CCC(=O)[*:2])N[*:1]; Glutaryl = O=C(CCCC(=O)[*:2])[*:1]; Nle = CCCC[C@H](N)C(=O)O; AEEA = NCCOCCOCC(=O)O; Aib = CC(C)(N)C(=O)O
T1: human GIP receptor (human, UniProt P48546 22-466)
T1 sequence (looked up): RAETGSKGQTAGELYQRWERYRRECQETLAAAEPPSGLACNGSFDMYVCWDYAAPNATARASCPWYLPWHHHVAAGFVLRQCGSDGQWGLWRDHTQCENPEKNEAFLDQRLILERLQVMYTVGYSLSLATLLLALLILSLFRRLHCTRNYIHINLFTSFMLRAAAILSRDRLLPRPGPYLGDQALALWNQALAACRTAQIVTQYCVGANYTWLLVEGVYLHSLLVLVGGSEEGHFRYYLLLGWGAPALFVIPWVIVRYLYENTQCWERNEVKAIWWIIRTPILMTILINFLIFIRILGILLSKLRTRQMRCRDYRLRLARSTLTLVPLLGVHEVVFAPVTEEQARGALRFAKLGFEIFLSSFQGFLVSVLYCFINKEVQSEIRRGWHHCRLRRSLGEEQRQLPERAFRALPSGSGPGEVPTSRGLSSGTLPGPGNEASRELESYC

B1: AT697 (peptide)
peptide: [γGlu]GTFISDYSIA[Nle]DKIK(C16 diacid)QQDFVEWLLAQKPSSGAPPPS-OH
modifications: N-terminus assumed
SMILES: CCCC[C@H](NC(=O)[C@H](C)NC(=O)[C@@H](NC(=O)[C@H](CO)NC(=O)[C@H](Cc1ccc(O)cc1)NC(=O)[C@H](CC(=O)O)NC(=O)[C@H](CO)NC(=O)[C@@H](NC(=O)[C@H](Cc1ccccc1)NC(=O)[C@@H](NC(=O)CNC(=O)CC[C@H](N)C(=O)O)[C@@H](C)O)[C@@H](C)CC)[C@@H](C)CC)C(=O)N[C@@H](CC(=O)O)C(=O)N[C@@H](CCCCN)C(=O)N[C@H](C(=O)N[C@@H](CCCCNC(=O)CCCCCCCCCCCCCCC(=O)O)C(=O)N[C@@H](CCC(N)=O)C(=O)N[C@@H](CCC(N)=O)C(=O)N[C@@H](CC(=O)O)C(=O)N[C@@H](Cc1ccccc1)C(=O)N[C@H](C(=O)N[C@@H](CCC(=O)O)C(=O)N[C@@H](Cc1c[nH]c2ccccc12)C(=O)N[C@@H](CC(C)C)C(=O)N[C@@H](CC(C)C)C(=O)N[C@@H](C)C(=O)N[C@@H](CCC(N)=O)C(=O)N[C@@H](CCCCN)C(=O)N1CCC[C@H]1C(=O)N[C@@H](CO)C(=O)N[C@@H](CO)C(=O)NCC(=O)N[C@@H](C)C(=O)N1CCC[C@H]1C(=O)N1CCC[C@H]1C(=O)N1CCC[C@H]1C(=O)N[C@@H](CO)C(=O)O)C(C)C)[C@@H](C)CC
B2: AT695 (peptide)
peptide: EGTFISEYSI[Aib]LEKIK([AEEA-AEEA-γGlu-C18 diacid])QQEFVEWLLAQKPSSGAPPPS-OH
modifications: N-terminus assumed
SMILES: CC[C@H](C)[C@H](NC(=O)[C@H](CCCCN)NC(=O)[C@H](CCC(=O)O)NC(=O)[C@H](CC(C)C)NC(=O)C(C)(C)NC(=O)[C@@H](NC(=O)[C@H](CO)NC(=O)[C@H](Cc1ccc(O)cc1)NC(=O)[C@H](CCC(=O)O)NC(=O)[C@H](CO)NC(=O)[C@@H](NC(=O)[C@H](Cc1ccccc1)NC(=O)[C@@H](NC(=O)CNC(=O)[C@@H](N)CCC(=O)O)[C@@H](C)O)[C@@H](C)CC)[C@@H](C)CC)C(=O)N[C@@H](CCCCNC(=O)COCCOCCNC(=O)COCCOCCNC(=O)CC[C@H](NC(=O)CCCCCCCCCCCCCCCCC(=O)O)C(=O)O)C(=O)N[C@@H](CCC(N)=O)C(=O)N[C@@H](CCC(N)=O)C(=O)N[C@@H](CCC(=O)O)C(=O)N[C@@H](Cc1ccccc1)C(=O)N[C@H](C(=O)N[C@@H](CCC(=O)O)C(=O)N[C@@H](Cc1c[nH]c2ccccc12)C(=O)N[C@@H](CC(C)C)C(=O)N[C@@H](CC(C)C)C(=O)N[C@@H](C)C(=O)N[C@@H](CCC(N)=O)C(=O)N[C@@H](CCCCN)C(=O)N1CCC[C@H]1C(=O)N[C@@H](CO)C(=O)N[C@@H](CO)C(=O)NCC(=O)N[C@@H](C)C(=O)N1CCC[C@H]1C(=O)N1CCC[C@H]1C(=O)N1CCC[C@H]1C(=O)N[C@@H](CO)C(=O)O)C(C)C
B3: AT698 (peptide)
peptide: [d(γGlu)]GTFISDYSIA[Nle]DKIK(C16 diacid)QQDFVEWLLAQKPSSGAPPPS-OH
modifications: N-terminus assumed
SMILES: CCCC[C@H](NC(=O)[C@H](C)NC(=O)[C@@H](NC(=O)[C@H](CO)NC(=O)[C@H](Cc1ccc(O)cc1)NC(=O)[C@H](CC(=O)O)NC(=O)[C@H](CO)NC(=O)[C@@H](NC(=O)[C@H](Cc1ccccc1)NC(=O)[C@@H](NC(=O)CNC(=O)CC[C@@H](N)C(=O)O)[C@@H](C)O)[C@@H](C)CC)[C@@H](C)CC)C(=O)N[C@@H](CC(=O)O)C(=O)N[C@@H](CCCCN)C(=O)N[C@H](C(=O)N[C@@H](CCCCNC(=O)CCCCCCCCCCCCCCC(=O)O)C(=O)N[C@@H](CCC(N)=O)C(=O)N[C@@H](CCC(N)=O)C(=O)N[C@@H](CC(=O)O)C(=O)N[C@@H](Cc1ccccc1)C(=O)N[C@H](C(=O)N[C@@H](CCC(=O)O)C(=O)N[C@@H](Cc1c[nH]c2ccccc12)C(=O)N[C@@H](CC(C)C)C(=O)N[C@@H](CC(C)C)C(=O)N[C@@H](C)C(=O)N[C@@H](CCC(N)=O)C(=O)N[C@@H](CCCCN)C(=O)N1CCC[C@H]1C(=O)N[C@@H](CO)C(=O)N[C@@H](CO)C(=O)NCC(=O)N[C@@H](C)C(=O)N1CCC[C@H]1C(=O)N1CCC[C@H]1C(=O)N1CCC[C@H]1C(=O)N[C@@H](CO)C(=O)O)C(C)C)[C@@H](C)CC
B4: AT696 (peptide)
peptide: EGTFISEYSI[Aib][Nle]EKIK([AEEA-AEEA-γGlu-C18 diacid])QQEFVEWLLAQKPSSGAPPPS-OH
modifications: N-terminus assumed
SMILES: CCCC[C@H](NC(=O)C(C)(C)NC(=O)[C@@H](NC(=O)[C@H](CO)NC(=O)[C@H](Cc1ccc(O)cc1)NC(=O)[C@H](CCC(=O)O)NC(=O)[C@H](CO)NC(=O)[C@@H](NC(=O)[C@H](Cc1ccccc1)NC(=O)[C@@H](NC(=O)CNC(=O)[C@@H](N)CCC(=O)O)[C@@H](C)O)[C@@H](C)CC)[C@@H](C)CC)C(=O)N[C@@H](CCC(=O)O)C(=O)N[C@@H](CCCCN)C(=O)N[C@H](C(=O)N[C@@H](CCCCNC(=O)COCCOCCNC(=O)COCCOCCNC(=O)CC[C@H](NC(=O)CCCCCCCCCCCCCCCCC(=O)O)C(=O)O)C(=O)N[C@@H](CCC(N)=O)C(=O)N[C@@H](CCC(N)=O)C(=O)N[C@@H](CCC(=O)O)C(=O)N[C@@H](Cc1ccccc1)C(=O)N[C@H](C(=O)N[C@@H](CCC(=O)O)C(=O)N[C@@H](Cc1c[nH]c2ccccc12)C(=O)N[C@@H](CC(C)C)C(=O)N[C@@H](CC(C)C)C(=O)N[C@@H](C)C(=O)N[C@@H](CCC(N)=O)C(=O)N[C@@H](CCCCN)C(=O)N1CCC[C@H]1C(=O)N[C@@H](CO)C(=O)N[C@@H](CO)C(=O)NCC(=O)N[C@@H](C)C(=O)N1CCC[C@H]1C(=O)N1CCC[C@H]1C(=O)N1CCC[C@H]1C(=O)N[C@@H](CO)C(=O)O)C(C)C)[C@@H](C)CC

molecular target: T1, human GIP receptor; test: cell-based or functional assay

In order of rising “cAMP agonism % Emax” value:
1. [βGlu]GTFISDYSIA[Nle]DKIK(C16 diacid)QQDFVEWLLAQKPSSGAPPPS-OH [AT699]  0%
2. Glutaryl-GTFISDYSIA[Nle]DKIK([AEEA-AEEA-γGlu-C18 diacid])QQDFVEWLLAQKPSSGAPPPS-OH [AT702]  0%
3. B2  0%
4. B4  0%
5. Glutaryl-GTFISDYSIA[Nle]DKIK(C16 diacid)QQDFVEWLLAQKPSSGAPPPS-OH [AT700]  3%
6. B1  8%
7. B3  8%
8. [βGlu]GTFISDYSIA[Nle]DKIK([AEEA-AEEA-γGlu-C18 diacid])QQDFVEWLLAQKPSSGAPPPS-OH [AT701]  13%

In order of rising “cAMP antagonism” value:
1. B4  0.584 nM
2. Glutaryl-GTFISDYSIA[Nle]DKIK(C16 diacid)QQDFVEWLLAQKPSSGAPPPS-OH [AT700]  0.708 nM
3. B2  0.794 nM
4. B1  2.82 nM
5. Glutaryl-GTFISDYSIA[Nle]DKIK([AEEA-AEEA-γGlu-C18 diacid])QQDFVEWLLAQKPSSGAPPPS-OH [AT702]  3.55 nM
6. [βGlu]GTFISDYSIA[Nle]DKIK(C16 diacid)QQDFVEWLLAQKPSSGAPPPS-OH [AT699]  6.31 nM
7. B3  9.26 nM
8. [βGlu]GTFISDYSIA[Nle]DKIK([AEEA-AEEA-γGlu-C18 diacid])QQDFVEWLLAQKPSSGAPPPS-OH [AT701]  12.6 nM

In order of rising “cAMP antagonism % inhib” value:
1. [βGlu]GTFISDYSIA[Nle]DKIK([AEEA-AEEA-γGlu-C18 diacid])QQDFVEWLLAQKPSSGAPPPS-OH [AT701]  63%
2. B3  78%
3. B1  81%
4. Glutaryl-GTFISDYSIA[Nle]DKIK([AEEA-AEEA-γGlu-C18 diacid])QQDFVEWLLAQKPSSGAPPPS-OH [AT702]  85%
5. [βGlu]GTFISDYSIA[Nle]DKIK(C16 diacid)QQDFVEWLLAQKPSSGAPPPS-OH [AT699]  88%
6. Glutaryl-GTFISDYSIA[Nle]DKIK(C16 diacid)QQDFVEWLLAQKPSSGAPPPS-OH [AT700]  89%
7. B4  97%
8. B2  98%

In order of falling “cAMP antagonism pIC50” value:
1. Glutaryl-GTFISDYSIA[Nle]DKIK(C16 diacid)QQDFVEWLLAQKPSSGAPPPS-OH [AT700]  9.2
2. B4  9.2
3. B2  9.1
4. B1  8.6
5. Glutaryl-GTFISDYSIA[Nle]DKIK([AEEA-AEEA-γGlu-C18 diacid])QQDFVEWLLAQKPSSGAPPPS-OH [AT702]  8.5
6. [βGlu]GTFISDYSIA[Nle]DKIK(C16 diacid)QQDFVEWLLAQKPSSGAPPPS-OH [AT699]  8.2
7. B3  8
8. [βGlu]GTFISDYSIA[Nle]DKIK([AEEA-AEEA-γGlu-C18 diacid])QQDFVEWLLAQKPSSGAPPPS-OH [AT701]  7.9

Source: patent US20220298218A1 (ANTAG THERAPEUTICS, published 2022)
